In patent US20150329642A1 (Genmab, published 2015):

B1: IgG1-024 (antibody, V domains shown)
VH: EVQLLESGGGLVQPGGSLRLSCVASGFTFSSYAMSWVRQAPGKGLEWVSAISGSSGGSTYYVDSVKGRFTISRANSKNTLYLQMNSLRAEDTAVYYCAKDLDRGWMGYFGYWGQGTLVTVSS
VL: DIQMTQSPSSVSASVGDRVTITCRASQGISSWLAWYQHKPGKAPKLLIYAASSLQSGVPSRFSGSGSGTDFTLTISSLQPEDFATYYCQQANSFPTFGQGTRLEIK
notes: also called TH1016-024; PC1016-024
B2: anti-c-Met HuMab 005 (IgG1) (antibody, V domains shown)
VH: QVQLVQSGAEVKKPGSSVKVSCKASGGTFSSYGFGWVRQAPGQGLEWMGRISPILGIANYAQMFQGRVTITADKSTSTAYMELSSLRSEDTAVYYCARDVGYDWPDTFDIWGQGTMVIVSS
VL: DIQMTQSPSSLSASVGDRVTITCRASQGISSWLAWYQQKPEKAPKSLIYAASSLQSGVPSRFSGGGSGTDFTLTISSLQPEDFATYYCQQYNSFPPTFGQGTKVEIK
notes: also called TH1016-005; PC1016-005
B3: IgG1-1016-022 (antibody, V domains shown)
VH: QVQLVESGGGVVQPGRSLRLSCAASGFTFSSYAMHWVRQAPGKGLEWVAVISYDGSNKYYADSVKGRFTISRDNSKNTLYLQMNSLRAEDTAVYYCARELLWFGELWGYFDLWGRGTLVTVSS
VL: DIQMTQSPSSVSASVGDRVTITCRASQGISSWLAWYQHKPGKAPKLLIYAASSLQSGVPSRFSGSGSGTDFTLTISSLQPEDFATYYCQEASSFTWTFGQGTKVEIK
notes: also called TH1016-022; PC1016-022
B4: anti-c-Met HuMab 006 (IgG1) (antibody, V domains shown)
VH: QVQLVQSGAEVKKPGSSVKVSCKASGGTFSSFGIGWVRQAPGQGLEWMGRIFPILGTANYAQMFQGRVTITADKSTSTAYMELTSLRSEDTAVYYCARDVGYDSADAFDIWGQGTMVTVSS
VL: DIQMTQSPSSLSASVGDRVTITCRASQGISSWLAWYQQKPEKAPKSLIYAASSLQSGVPSRFSGSGSGTDFTLTISSLQPEDFATYYCQQYNSYPPTFGQGTKVEIK
notes: also called TH1016-006; PC1016-006
B5: anti-c-Met HuMab 008 (IgG1) (antibody, V domains shown)
VH: EVQLVQSGAEVKKPGESLKISCKGSGYSFTSYWIGWVRQMPGKGLEWMGIIYPGDSETRYSPSFQGQVTISADKSISTAYLQWSSLKASDTAMYYCARQEITGEFDYWGQGTLVTVSS
VL: AIQLTQSPSSLSASVGDRVTITCRASQGISSALAWYQQKPGKAPKLLIYDASSLESGVPSRFSGSGSGTDFTLTISSLQPEDFATYYCQQFNSYPRTFGQGTKVEIK
notes: also called TH1016-008; PC1016-008

Experiments:
[1] = biological target: T1, cMetECDHis (human, UniProt P08581 25-932, limits assumed, biotinylated in the cross-block ELISA of Example 17); assay: cross-block ELISA; competitor 022
T1 construct: Expressed in HEK-293F cells; also called soluble cMetECDHis; biotinylated cMetECDHis
Description: (§1) First, the optimal coating concentrations of the tested anti-c-Met antibodies and the optimal cMetECDHis concentration were determined. Therefore, ELISA wells were coated overnight at 4° C. with anti-c-Met HuMabs serially diluted in PBS (8 μg/mL in 2-fold dilutions). Next, the ELISA wells were washed with PBST (PBS supplemented with 0.05% Tween-20 [Sigma-Aldrich, Zwijndrecht, The Netherlands]) and blocked for one hour at room temperature (RT) with PBSTC (PBST supplemented 2% [v/v] chicken serum [Gibco, Paisley, Scotland]). Subsequently, the ELISA wells were washed with PBST and incubated for one hour at RT with biotinylated cMetECDHis serially diluted in PBSTC (1 μg/mL in 2-fold dilutions). Unbound biotinylated cMetECDHis was washed away with PBST, and bound biotinylated cMetECDHis was incubated for one hour at RT with 0.1 μg/mL Streptavidin-poly-HRP (Sanquin, Amsterdam, The Netherlands) diluted in PBST.
(§2) ELISA wells were coated with anti-c-Met antibody at a sub-optimal dose as described above. After blocking of the ELISA wells, they were incubated with the predetermined concentration of biotinylated cMetECDHis in the presence of an excess of anti-c-Met antibody. The reaction was developed as described above. Residual binding was expressed as a percentage relative to the binding observed in the absence of competitor antibody.

[2] = biological target: T1, cMetECDHis; assay: cross-block ELISA; competitor 058
Description: as §1, §2

[3] = biological target: T1, cMetECDHis; assay: cross-block ELISA; competitor 062
Description: as §1, §2

[4] = biological target: T1, cMetECDHis; assay: BLI (Octet); antibody captured, cMetECDHis in solution
Description: Antibody binding to cMetECDHis was analyzed by means of Bio-Layer Interferometry (BLI) technology on the Octet System (Fortebio, Menlo Park, USA). Anti-human IgG coated biosensors (Fc-specific) were used to capture anti-c-Met antibodies according to the procedure recommended by the manufacturer. cMetECDHis derived from HEK293 cells was loaded on top of the immobilized anti-c-Met antibodies by placing the loaded biosensor into a well containing 10 μg/mL cMetECDHis diluted in 10 times diluted kinetics buffer (Fortebio). The difference in reflection of light (AA, nm) of the biosensor surface due to the binding of cMetECDHis was measured in real time during approximately 10 minutes and was used by the Octet software (V4.0, Fortebio) to calculate the association constant (kₐ [1/M×s]). Next, the loaded biosensor was placed into a well containing only kinetics buffer (10 times diluted in PBS) to determine the dissociation constant (kd [1/s]). Kinetics analysis was performed to determine the affinity (KD [M]) using model 1:1 (langmuir). As a positive control, 0.2 μg/mL 5D5 IgG1 produced in HEK293 cells, was used.

[5] = biological target: T1, cMetECDHis; assay: cross-block ELISA; competitor 064
Description: as §1, §2

[6] = biological target: T1, cMetECDHis; assay: cross-block ELISA; competitor 068
Description: as §1, §2

[7] = biological target: T1, cMetECDHis; assay: cross-block ELISA; competitor 024
Description: as §1, §2

[8] = biological target: T1, cMetECDHis; assay: cross-block ELISA; competitor 006
Description: as §1, §2

[9] = biological target: T1, cMetECDHis; assay: cross-block ELISA; competitor 008
Description: as §1, §2

[10] = biological target: T1, cMetECDHis; assay: cross-block ELISA; competitor 035
Description: as §1, §2

[11] = biological target: T1, cMetECDHis; assay: cross-block ELISA; competitor 5D5
Description: as §1, §2

[12] = biological target: T1, cMetECDHis; assay: cross-block ELISA; competitor 181
Description: as §1, §2

[13] = biological target: T1, cMetECDHis; assay: cross-block ELISA; competitor 098
Description: as §1, §2

[14] = biological target: T1, cMetECDHis; assay: cross-block ELISA; competitor 069
Description: as §1, §2

[15] = biological target: T1, cMetECDHis; assay: cross-block ELISA; competitor 101
Description: as §1, §2

[16] = biological target: T1, cMetECDHis; assay: cross-block ELISA; competitor 045
Description: as §1, §2

[17] = biological target: T1, cMetECDHis; assay: cross-block ELISA; competitor 005
Description: as §1, §2

Binder	residual binding, % of no competitor [1]	residual binding, % of no competitor [2]	residual binding, % of no competitor [3]	Kd [4]	koff [4]	kon [4]	residual binding, % of no competitor [5]	residual binding, % of no competitor [6]	residual binding, % of no competitor [7]	residual binding, % of no competitor [8]	residual binding, % of no competitor [9]	residual binding, % of no competitor [10]	residual binding, % of no competitor [11]	residual binding, % of no competitor [12]	residual binding, % of no competitor [13]	residual binding, % of no competitor [14]	residual binding, % of no competitor [15]	residual binding, % of no competitor [16]	residual binding, % of no competitor [17]
B1	100%	103%	2.3%	1.57 nM	0.000228 s⁻¹	145000 M⁻¹ s⁻¹	2.3%	12%	5.4%	101%	104%	108%	95.5%	7.1%	10.4%	2.9%	4.8%	98.1%	98.4%
B2	4.9%	3.6%	118%	7.92 nM	0.00252 s⁻¹	318000 M⁻¹ s⁻¹	118%	129%	114%	18.2%	81.9%	84.9%	2.9%	131%	110%	124%	103%	117%	7.7%
B3	3.8%	5.8%	99.4%	1.06 nM	0.000251 s⁻¹	236000 M⁻¹ s⁻¹	102%	104%	99.4%	60.5%	94.1%	92.4%	4.2%	107%	105%	99.6%	104%	95.7%	37.9%
B4	4.6%	3.6%	119%	9.89 nM	0.0042 s⁻¹	425000 M⁻¹ s⁻¹	122%	129%	113%	14.6%	58.8%	67.5%	3.1%	124%	111%	124%	106%	114%	11.3%
B5	82.1%	40.8%	100%	5.12 nM	0.00157 s⁻¹	308000 M⁻¹ s⁻¹	107%	112%	103%	47.3%	5.4%	32.9%	32.4%	111%	107%	104%	101%	100%	63.9%
